# Data: patent US20250326792A1, “A FORMULATION FOR TREATMENT OF PIGMENTARY DISORDERS” (priority 2022, published 2025)
# PHPP = 3-Phenylpyrazolo[3,4-d]pyrimidine (N-terminal cap)
# Tests used:
# [1] = Stability of IS103 API, accelerated (Condition 1, 5±3° C.); format: physicochemical
# Protocol: The purpose of stability testing is to provide evidence on how the quality of a drug substance or drug product varies with time under the influence of a variety of environmental factors such as temperature, humidity, etc. and to establish a re-test period for the drug substance or a shelf life for the drug product and recommended storage conditions. The study was conducted according to the WHO and schedule-Y guidelines.
# The IS103 API is a lyophilized white fluffy powder, and it was filled at sterile condition in glass injection vial which has airlock-rubber capping. This container closure system is same as or simulates the packaging proposed for storage and distribution.
# The following test attributes have been selected according to the above said guidelines: • appearance; odour; colour; colour of solution (when IS103 API is soluble in solvent); clarity of solution; degradation and assessment of container closure system.
# The studies were conducted under appropriate storage conditions (with appropriate tolerances) that test IS103 API thermal stability and its sensitivity to moisture. The IS103 API is intended for storage for 36 months. Accordingly, long term stability studies were done for 36 months. The details of the storage conditions have been furnished hereunder.
# NHEM cells = assay: Cell viability (XTT assay) in NHEM cells; format: cell-based, Human; conditions: 1000 μg/ml for about 48 hours
# Protocol: Culture and maintenance of cell lines: B16F10 cells were cultured in RPMI containing 10% fetal bovine serum, 100 units per millilitre (U/mL) penicillin, 0.1 mg/mL streptomycin, and 0.25 microgram per millilitre (μg/mL) amphotericin B at 37 degrees Celsius in a humidified 95% air/5% CO2 incubator. Drug treatment was done 24 hours after seeding. Cells were harvested 48 hours later and melanin content and tyrosinase activity determined in triplicate. […] […]
# B16F10 and NHEM cells were sub-cultured into 96-well culture plates at a density of 1×10^4 cells/well in 100 μL medium and after about 24 hours of incubation, the medium was discarded and replaced with 100 μL of a suitable medium (RPMI for B16F10 and DMEM for NHEM with 1% FBS) for starvation and then treated in the presence or absence of various concentrations of test compound and positive controls (IBMX and α-MSH). […] At the end of the incubation, about 50 μL of XTT test solution prepared by mixing about 5 mL of XTT-labeling reagent and about 100 μL of electron coupling reagent is added to each well and after about 4 hours of incubation at 37° C. and a about 5% CO2 incubator, the absorbance was measured on an ELISA reader at a test wavelength of 490 nm.
substance,measurement,setting,value
PHPP-Tyr-Arg-Ser-Arg-Lys-Tyr-Ser-Ser-Trp-Tyr-NH2 ({PHPP}-YRSRKYSSWY-NH2) [IS103],API calculated on the anhydrous basis,"[1]; 5±3° C., 1 M",99.68%
same,Appearance white to off white amorphous powder,"[1]; 5±3° C., 1 M",White
same,Related substances (By HPLC) Any Max Impurity,"[1]; 5±3° C., 1 M",0.35%
same,Related substances (By HPLC) Total Impurity,"[1]; 5±3° C., 1 M",2.23%
same,Solubility Sparingly soluble in water,"[1]; 5±3° C., 1 M",Complies
same,Water Content (By Karl Fischer-Titrator),"[1]; 5±3° C., 1 M",4.27% w/w
same,Internal change in attributes: Appearance,"[1]; 5±3° C., 1st month",No change
same,Internal change in attributes: Clarity of solution,"[1]; 5±3° C., 1st month",No change
same,Internal change in attributes: Color,"[1]; 5±3° C., 1st month",No change
same,Internal change in attributes: Color of solution,"[1]; 5±3° C., 1st month",No change
same,Internal change in attributes: Odor,"[1]; 5±3° C., 1st month",No change
same,Internal change in attributes: Appearance,"[1]; 5±3° C., 2nd month",No change
same,Internal change in attributes: Clarity of solution,"[1]; 5±3° C., 2nd month",No change
same,Internal change in attributes: Color,"[1]; 5±3° C., 2nd month",No change
same,Internal change in attributes: Color of solution,"[1]; 5±3° C., 2nd month",No change
same,Internal change in attributes: Odor,"[1]; 5±3° C., 2nd month",No change
same,API calculated on the anhydrous basis,"[1]; 5±3° C., 3 M",99.14%
same,Appearance white to off white amorphous powder,"[1]; 5±3° C., 3 M",White
same,Related substances (By HPLC) Any Max Impurity,"[1]; 5±3° C., 3 M",0.40%
same,Related substances (By HPLC) Total Impurity,"[1]; 5±3° C., 3 M",2.30%
same,Solubility Sparingly soluble in water,"[1]; 5±3° C., 3 M",Complies
same,Water Content (By Karl Fischer-Titrator),"[1]; 5±3° C., 3 M",4.29% w/w
same,Internal change in attributes: Appearance,"[1]; 5±3° C., 3rd month",No change
same,Internal change in attributes: Clarity of solution,"[1]; 5±3° C., 3rd month",No change
same,Internal change in attributes: Color,"[1]; 5±3° C., 3rd month",No change
same,Internal change in attributes: Color of solution,"[1]; 5±3° C., 3rd month",No change
same,Internal change in attributes: Odor,"[1]; 5±3° C., 3rd month",No change
same,API calculated on the anhydrous basis,"[1]; 5±3° C., 6 M",99.00%
same,Appearance white to off white amorphous powder,"[1]; 5±3° C., 6 M",White
same,Related substances (By HPLC) Any Max Impurity,"[1]; 5±3° C., 6 M",0.49%
same,Related substances (By HPLC) Total Impurity,"[1]; 5±3° C., 6 M",2.44%
same,Solubility Sparingly soluble in water,"[1]; 5±3° C., 6 M",Complies
same,Water Content (By Karl Fischer-Titrator),"[1]; 5±3° C., 6 M",4.87% w/w
same,Internal change in attributes: Appearance,"[1]; 5±3° C., 6th month",No change
same,Internal change in attributes: Clarity of solution,"[1]; 5±3° C., 6th month",No change
same,Internal change in attributes: Color,"[1]; 5±3° C., 6th month",No change
same,Internal change in attributes: Color of solution,"[1]; 5±3° C., 6th month",No change
same,Internal change in attributes: Odor,"[1]; 5±3° C., 6th month",No change
same,API calculated on the anhydrous basis,"[1]; 5±3° C., Initial",99.73%
same,Appearance white to off white amorphous powder,"[1]; 5±3° C., Initial",White
same,Related substances (By HPLC) Any Max Impurity,"[1]; 5±3° C., Initial",0.39%
same,Related substances (By HPLC) Total Impurity,"[1]; 5±3° C., Initial",2.09%
same,Solubility Sparingly soluble in water,"[1]; 5±3° C., Initial",Complies
same,Water Content (By Karl Fischer-Titrator),"[1]; 5±3° C., Initial",4.18% w/w
same,found to be stable for,"[1]; accelerated condition, 5±3° C.",6 months
same,stable for,[1]; refrigerator (5±3° C.) conditions,36 months
same,effect on cell viability,NHEM cells,did not exert any significant effect on cell viability
